{
  "source": "patent US20230312654A1",
  "key": {"[1]": {"target": "UFV180846 (influenza B virus B/Brisbane/60/08) (UniProt P22092)"}, "[2]": {"target": "UFV180251 (influenza B virus B/Brisbane/60/08) (UniProt P22092)"}, "[3]": {"target": "UFV180131 (influenza B virus B/Brisbane/60/08) (UniProt P22092)"}, "[4]": {"target": "UFV180137 (influenza B virus B/Brisbane/60/08) (UniProt P22092)"}, "[5]": {"target": "UFV180284 (influenza B virus B/Brisbane/60/08) (UniProt P22092)"}},
  "data": [
    {"substance": "monoclonal antibody CR8071", "values": [
      {"measurement": "EC50", "setting": "[1]", "value": "< 4.6", "unit": "nM"}
    ]},
    {"substance": "monoclonal antibody CR9114", "values": [
      {"measurement": "EC50", "setting": "[2]", "value": "< 2.6", "unit": "nM"},
      {"measurement": "EC50", "setting": "[3]", "value": "< 2.6", "unit": "nM"},
      {"measurement": "EC50", "setting": "[4]", "value": "< 2.6", "unit": "nM"},
      {"measurement": "EC50", "setting": "[1]", "value": "< 4.6", "unit": "nM"},
      {"measurement": "EC50", "setting": "[5]", "value": "< 2.6", "unit": "nM"}
    ]}
  ]
}
